Data taken from US20160009800A1.
Positions count from the first letter of the chain named. Each block holds one binder with its values, some of them ahead of it.

Assays:
[1] = target: human insulin receptor complexed with human insulin (human) (UniProt P06213); test: FACS, serum-starved CHO-K1 cells expressing human INSR, with insulin
[2] = target: human insulin receptor complexed with human insulin (human) (UniProt P06213); test: FACS, CHO-K1 human INSR cells, signal with insulin divided by signal without insulin
[3] = target: human insulin receptor complexed with human insulin (human) (UniProt P06213); test: FACS, serum-starved CHO-K1 cells expressing human INSR, with insulin [cont'd]
[4] = target: human insulin receptor complexed with human insulin (human) (UniProt P06213); test: FACS, CHO-K1 human INSR cells, signal with insulin divided by signal without insulin [cont'd]
[5] = target: mouse insulin receptor (mouse) (UniProt P15208); test: FACS, serum-starved CHO-K1 cells expressing mouse INSR, no insulin [cont'd]
[6] = target: mouse insulin receptor (mouse) (UniProt P15208); test: FACS, serum-starved CHO-K1 cells expressing mouse INSR, no insulin
[7] = target: mouse insulin receptor complexed with human insulin (mouse; human) (UniProt P15208); test: FACS, serum-starved CHO-K1 cells expressing mouse INSR, with insulin
[8] = target: mouse insulin receptor complexed with human insulin (mouse; human) (UniProt P15208); test: FACS, CHO-K1 mouse INSR cells, signal with insulin divided by signal without insulin
[9] = target: human insulin receptor complexed with human insulin (human) (UniProt P06213); test: FACS competition on hINSR8-CHOK1 cells with insulin; competitor Ab019
[10] = target: human insulin receptor (human) (UniProt P06213); test: FACS, serum-starved CHO-K1 cells expressing human INSR, no insulin

B1: Ab065 (antibody, IgG2, V domains shown)
VH: QVQLVQSGAEVKKPGESLKISCKGSGYSFTSYWIGWVRQMPGKGLEWMGIIYPGDSDTRYSPSFQGQVTISADKSISTAYLQWSSLKASDTAMYYCARHELGIDYWGQGTLVTVSS
VL: QAGLTQPPSVSKGLRQTATLTCTGDNNIVGDQGAAWLQQHQGHPPKLLSFRNNSRPSGISERFSASRSRNTASLTITRLQPEDAADYYCSAWDSFLSAWVFGGGTKLTVL
FACS area under log transformed data MFI [1]: 57 | FACS area under log transformed data MFI ratio (+insulin/-insulin) [2]: 0.28

B2: Ab071 (antibody, IgG2, V domains shown)
VH: B1 VH with Q1E, H99W, E100D, L101A, I103Y, D104S, Y105P
VL: SSELTQDPAVSVALGQTVRITCQGDSLRSYYASWYQQKPGQAPVLVFYGKNNRPSGIPGRFSGSKSGNTASLTITGAQAEDEADYYCNSRDSSGNHWVFGGGTKLTVL
FACS area under log transformed data MFI [3]: 194 | FACS area under log transformed data MFI ratio (+insulin/-insulin) [4]: 0.4

B3: Ab078 (antibody, IgG2, V domains shown)
VH: QVQLVQSGGGLVQPGGSLRLSCAASGFTFSSYSMNWVRQAPGKGLEWVSSISSSSSYIYYADSVKGRFTISRDNAKNSLYLQMNSLRAEDTAVYYCARDQGGELLGFTGYFDYWGQGTLVTVSS
VL: DIQLTQSPSSLSASVGDRVTITCRASQGISSALAWYQQKPGKAPKVLIYDASSLERGVPSRFSGSGTGTDFTLTISSLQPEDFASYYCHQFNSYPDTFGQGTRLEIK
FACS area under log transformed data MFI [5]: 12

B7: Ab052 (antibody, IgG2, V domains shown)
VH: EVQLVQSGAEVKKPGESLKISCKGSGYRFTSYWIGWVRQMPGRGLEWMGIIYPGDSDTRYSPSFQGQVTISVDKSISTAYLQWSSLKASDTAMYYCATHHASGRGLDPWGQGTLVTVSS
VL: QAMLTQPASLSASPGASASLTCTLRSGINVVAYNIYWYRQKSGSPPQSVLRYKSDSDSERDSGVPSRFSGSKDVSANAGILLISGLQSEDEADYYCLIWHNSAWVFGGGTQLTVL
FACS area under log transformed data MFI [1]: 134 | FACS area under log transformed data MFI ratio (+insulin/-insulin) [2]: 0.3

B8: Ab050 (antibody, IgG2, V domains shown)
VH: QVQLVQSGAELKKPGATVKISCKVSGYTFGDYHMHWVKQAPGKGLEWMGLVDPENGETEYGEKFQDRITMAADTSTDTAYMELSSLRSEDTAVYYCARSPSSSGYFRVDGFDIWGQGTMVTVSS
VL: NFMLTQPHSVSESPGKTVSISCTGSSGSIGSNYVQWYQQRPGSAPTTVIYEDNQRPSGVPDRFSGSIDSSSNSASLTISGLKTEDEADYYCQSYYNSNVVFGGGTKLTVL
FACS area under log transformed data MFI [1]: 81 | FACS area under log transformed data MFI ratio (+insulin/-insulin) [2]: 0.32

B10: Ab061 (antibody, IgG2, V domains shown)
VH: QMQLVQSGAEVKKTGESLKISCQGYGYRFTDNWIGWVRQMPGRGLEWMGIIYPGDSETRYSPSFQGQVTISADKSISTAYLEWSSLKASDTAMYYCARHAPLAVAGMALGDWGQGTLVTVSS
VL: QTVVTQEPSFSVSPGGTVTLTCGLSSGSVSTGYSPGWYQQTPGQAPRTLVYNTNTRSSGVPDRFSGSILGNKAALTITGAQADDESDYYCALYMGSGTYVFGGGTKLTVL
percent competition [9]: < 30% | FACS area under log transformed data MFI [1]: 59 | FACS area under log transformed data MFI ratio (+insulin/-insulin) [2]: 0.29

B11: Ab057 (antibody, IgG2, V domains shown)
VH: B10 VH with T14P, Q23K, T30S, E82Q
VL: QTVVTQEPSFSVSPGGTVTLTCGLTSGSVSTSYYPSWYQQTPGQAPRMLVHSTSTRYSGVPDRFSGSILGNKAALTITGAQADDESDYYCALYMGGGIYVFGGGTQLTVL
FACS area under log transformed data MFI [10]: 155 | FACS area under log transformed data MFI [1]: 87 | FACS area under log transformed data MFI ratio (+insulin/-insulin) [2]: 0.56

B13: Ab070 (antibody, IgG2, V domains shown)
VH: EVQLVQSGAEVKKPGESLKISCKGSGYSFTSYWIGWVRQMPGKGLEWMGIIYPGDSDTRYSPSFQGQVTISADKSISTSYLQWSSLRASDTAMYYCARLGSGWYGNDYWGQGTLVTVSS
VL: B2 VL with A32T, F47I, Y48F, G59D, K65S, H96Y, W97A, K104Q
FACS area under log transformed data MFI [3]: 150 | FACS area under log transformed data MFI ratio (+insulin/-insulin) [4]: 0.53

More lines, now with the values ahead:

FACS area under log transformed data MFI [3]: 236 | FACS area under log transformed data MFI ratio (+insulin/-insulin) [4]: 0.59
B4: Ab082 (antibody, IgG2, V domains shown)
VH: QMQLVQSGAEVKKPGESLKISCKGSGYSFTSYWIGWVRQMPGKGLEWMGIIYPGDSDTRYSPSFQGQVTISADKSISTAYLQWSSLKASDTAMYYCARWGPDAFDIWGQGTMVTVSS
VL: EIVLTQSPDFQSVTPKETVTISCRASQNIGVSLHWYQQKPDQSPKVLIKYASQSLSGVPSRFSGTGSGTDFTLTIKSLEAEDAATYYCLQTSSLPWTFGQGTKVEIK

FACS area under log transformed data MFI [3]: 84 | FACS area under log transformed data MFI ratio (+insulin/-insulin) [4]: 0.37
B5: Ab072 (antibody, IgG2, V domains shown)
VH: QMQLVQSGAEVKKPGESLKISCKGSGYSFTGYWIGWVRQMPGKGLEWMGIIYPGDSDTRYSPSFQGQVTISADKSISTAYLQWSSLKVSDTAMYYCGRISTPYAFDIWGQGTMVTVSS
VL: SYVLTQPPSASGTPGQRVTISCSGSNSNIGSNFVTWYQQLPGAAPKLLIYTNSQRPSGVPDRFSGSRSGTSASLAISGLQSEDEADYFCAAWDDSLNGPVFGGGTQLTVL

FACS area under log transformed data MFI [6]: 21 | FACS area under log transformed data MFI [7]: 41 | FACS area under log transformed data MFI ratio (+insulin/-insulin) [8]: 1.98
B6: Ab056 (antibody, IgG2, V domains shown)
VH: QVQLVQSGSEVKKPGASVKVSCKASGYTFTNSYMHWVRQAPGQGLEWMGIINPSAGTSYAQKFQGRVTMTRDTSTSTVYMELSSLKSEDTAVYYCARDVGWLPGDYWGQGTLVTVSS
VL: QSALTQPASVSESPGQSITISCTGTGSDIGTYNLVSWYQHHPGKAPKLMIYEVTKRPSGVSNRFSGSKSGNTASLTISGLQAEDEADYYCSSYTSSSTLYVFGTGTKLTVL

FACS area under log transformed data MFI [6]: 14 | FACS area under log transformed data MFI [7]: 13
B9: Ab059 (antibody, IgG2, V domains shown)
VH: EVQLVQSGAEVKKPGSSVKVSCKASGGTFSSYAISWVRQAPGQGLEWMGRIIPIFGIANYAQKFQGRVTITADKSTSTAYMELSSLRSEDTAVYYCAREPDYDFWNDAFDIWGQGTMVTVSS
VL: QAVLTQPASLSASPGASASLTCTLRSDISVGVYRISWYQQKPGSPPQYLLSYNSDSNNHQGSGVPSRFSGSKDASANAGILLISGLQSEDEADYYCMIWHINAWVFGGGTKVTVL

FACS area under log transformed data MFI [1]: 146 | FACS area under log transformed data MFI ratio (+insulin/-insulin) [2]: 0.41
B12: Ab069 (antibody, IgG2, V domains shown)
VH: B13 VH with T78I, S79A, R87K, S101R, W103Y, N106M, Y108V, L114T
VL: B2 VL with F47I, G59D, K65R, W97V, L105V
